Patent publication US20040180051A1 (published 2004)
Each block holds one binder with its values, some of them ahead of it.

Tests used:
[1] = molecular target: T1, human tissue factor (human TF) on human bladder carcinoma cells J82 (human, UniProt P13726 33-295); test: cell ELISA on fixed J82 cells;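 further: measures antigen binding in a cell ELISA on J82 cells grown one day in 96-well plates and fixed with 4% paraformaldehyde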
T1 construct: whole, on cells; Target of the cell ELISA; also called the antigen
Procedure: (§1) Cell ELISA plates for measurement of antigen binding were prepared as follows. Cells used were human bladder carcinoma cells J82 (ATCC HTB-1). To 60 wells of a 96-well cell culture plate, 1×10⁵ J82 cells were inoculated. This was cultured (RPMI1640 medium containing 10% fetal bovine serum (GIBCO)) for one day in a CO₂ incubator to allow the cells to be attached thereto. After discarding the culture liquid, each well was washed twice with 300 μl PBS. 100 μl of PBS containing 4% paraformaldehyde (hereinafter referred to as PFA/PBS) was added to each well, and placed on ice for 10 minutes to immobilize the cells.

[2] = molecular target: T1, human tissue factor (human TF) on human …; test: cell ELISA on fixed J82 cells; reference antibody (CHO DG44 expressed)
Procedure: as §1

B1: humanized H chain version “a” combined with the humanized L chain version “a” (antibody, V domains shown)
VH: QVQLLESGAVLARPGTSVKISCKASGFNIKDYYMHWVKQRPGQGLEWIGGNDPANGHSMYDPKFQGRAKLTAATSASIAYLEFSSLTNEDSAVYYCARDSGYAMDYWGQGTLVTVSS
VL: DIQMTQSPSSLSASVGDRVTITCKASQDIKSFLSWYQQKPGKAPKLLIYYATSLADGVPSRFSGSGSGTDFTLTISSLQPEDFATYYCLQHGESPYTFGGGTKVEIK
notes: expressed in COS-7; also called a-a
binding result [1]: binds

B2: chimeric ATR-5 antibody (antibody, V domains shown)
VH: EVQLQQSGTNLVRPGALVKLSCKGSGFNIKDYYMHWVKQRPEQGLEWIGGNDPANGHSMYDPKFQGKASITADTSSNTAYLQLSSLTSEDTAVYFCARDSGYAMDYWGQGTSVTVSS
VL: DIKMTQSPSSMYASLGERVTITCKASQDIKSFLSWYQQKPWKSPKTLIYYATSLADGVPSRFSGSGSGQDYSLTINNLESDDTATYYCLQHGESPYTFGGGTKLEIK
notes: Mouse V regions on human C regions; also called ch-ch; chimeric antibody
binding result [2]: binds

Second part, the binder after the results:

binding result [1]: binds
B3: humanized H chain version “c” combined with a chimeric L chain (antibody, V domains shown)
VH: QVQLLESGAVLARPGTSVKISCKASGFNIKDYYMHWVKQRPGQGLEWIGGNDPANGHSMYDPKFQGRVTMLVDTSKNQFSLRLSSVTAADTAVYYCARDSGYAMDYWGQGTLVTVSS
VL: B2 VL
notes: expressed in COS-7; also called c-ch

binding result [1]: binds
B4: humanized H chain version “j” combined with a chimeric L chain (antibody, V domains shown)
VH: QVQLLESGAVLARPGTSVKISCKASGFNIKDYYMHWVKQRPGQGLEWIGGNDPANGHSMYDPKFQGRVTFTADTSANTAYMELRSLRSADTAVYYCARDSGYAMDYWGQGTLVTVSS
VL: B2 VL
notes: expressed in COS-7; also called j-ch
